{
  "source": "patent US20220411504A1",
  "about": "(Janssen / Centocor, published 2022)",
  "binders": {"B1": {"name": "MHGB688 (antibody, human IgG1, kappa, V domains shown)", "VH": "EVQLLESGPGLVKPSQTLSLTCVISGDSVSSNRAAWNWIRQSPSRGLEWLGRTYYRSKWYNDYAVSVKSRITINSDTSKNQISLQLNSVTPEDTAVYYCARVRPGIPFDYWGQGTPVTVSS", "VL": "not shown", "notes": "IgG1"}, "B2": {"name": "MHGB694 (antibody, human IgG1, kappa, V domains shown)", "VH": "EVQLLESGGGLVQPGGSLRLSCAASGFTFSSYAMHWVRQAPGKGLDWVSGISGSGFSTYYVDSVKGRFTISRDNSKHTLYLQMNSLRAEDTAVYYCAKDNLVAGTVFDYWGQGTLVTVSS", "VL": "not shown", "notes": "IgG1"}, "B3": {"name": "MHGB669 (antibody, human IgG1, kappa, V domains shown)", "VH": "QVQLQQSGPGLVRPSQTLSVTCAISGDSVSSNSASWNWIRQSPSRGLEWLGRTYYRSEWFNDYAVSVKSRVTINPDTSKNQLSLQLNSVIPEDTAVYYCAREARIGVAGKGFDYWGQGTLVTVSS", "VL": "not shown", "notes": "IgG1"}, "B4": {"name": "MHGB672 (antibody, human IgG1, kappa, V domains shown)", "VH": "QVQLQQSGPGLVKPSQTLSLTCAISGDSVSSNRAAWNWIRQTPSRGLEWLGRTYYRSEWYNDYAVSVKSRITINPDTSKNQFSLQLNSVTPEDTAVYYCARVRAAVPFDYWGQGTLVTVSS", "VL": "not shown", "notes": "IgG1"}, "B5": {"name": "MHGB738 (antibody, human IgG1, kappa, V domains shown)", "VH": "B1 VH with E1Q, L5Q, E6Q, V23A, S75P", "VL": "not shown", "notes": "IgG1; also called GL optimized B688"}, "B6": {"name": "MHGB687 (antibody, human IgG1, kappa, V domains shown)", "VH": "QLQLQESGPGLVKPSETLSLMCTVSGGSITSSSYYWGWIRQPPGKGLEWIGNIYYSGTTYYNPSLKSRVTISVDTSKNQFSLKLSSVTAADTAVYYCAAGARDFDSWGQGSLVTVSS", "VL": "not shown", "notes": "IgG1"}, "B7": {"name": "MHGB668 (antibody, human IgG1, kappa, V domains shown)", "VH": "QVQLQQSGPGLVKPSQTLSLTCAISGDSVSNNSAAWNWIRQSPSRGLEWLGRTYYRSKWYNDYAVSVKSRITINPDTSKNQFSLQLNSVTPEDTAVYYCARYGSGTLLFDYWGQGTLVTVSS", "VL": "not shown", "notes": "IgG1"}, "B8": {"name": "CD3W243-HL-E.c. (scFv)", "scFv": "EVQLVESGGGLVKPGGSLRLSCAASGFTFSRYNMNWVRQAPGKGLEWVSSISTSSNYIYYADSVKGRFTFSRDNAKNSLDLQMSGLRAEDTAIYYCTRGWGPFDYWGQGTLVTVSSGTEGKSSGSGSESKSTDIQMTQSPSSLSASVGDRVTITCRARQSIGTAIHWYQQKPGKAPKLLIKYASESISGVPSRFSGSGSGTDFTLTISSVQPEDFATYYCQQSNSWPYTFGQGTKLEIKGPGGQHHHHHHGAYPYDVPDYAS", "notes": "E. coli supernatant"}, "B9": {"name": "CD3W244-HL-E.c. (scFv)", "scFv": "B8 scFv with K181Y, N224G", "notes": "E. coli supernatant"}, "B10": {"name": "CD3W246-HL-E.c. (scFv)", "scFv": "B8 scFv with N224G", "notes": "E. coli supernatant"}, "B11": {"name": "CD3W247-HL-E.c. (scFv)", "scFv": "B8 scFv with K181Y, V210L, N224G", "notes": "E. coli supernatant"}},
  "note": "Numbering of substitutions follows the chain as printed.",
  "data": [
    {"molecular_target": "T1, MHGW8 (B2m-3(G4S)-HLA-G1-G4S-Avi) (human, biotinylated (Avi tag) in the blocking assay)", "T1 construct": "Single chain β2m-HLA-G1; also called soluble HLA-G1 extracellular domain; recombinant biotinylated HLA-G1", "assay": "flow cytometry competition: blocks MHGW8-dextramer binding to ILT2 on HEK293T cells (competitor ILT2)", "units": {"EC50": "nM"}, "values": [
      {"binder": "B1", "EC50": 1720},
      {"binder": "B2", "EC50": 644},
      {"binder": "B3", "EC50": 1700},
      {"binder": "B4", "EC50": 2120},
      {"binder": "B5", "EC50": 1.6}
    ]},
    {"molecular_target": "T2, HLA-G on cells (K562-HLA-G and HLA-G expressing tumor cells) (human)", "T2 construct": "whole, on cells; also called HLA-G1", "assay": "flow cytometry, IgG1 mAb on cells expressing HLA-G", "values": [
      {"binder": "B1", "GeoMean fluorescence (maximum value)": 482000},
      {"binder": "B2", "GeoMean fluorescence (maximum value)": 473000},
      {"binder": "B3", "GeoMean fluorescence (maximum value)": 616000},
      {"binder": "B4", "GeoMean fluorescence (maximum value)": 522000},
      {"binder": "B6", "GeoMean fluorescence (maximum value)": 528000},
      {"binder": "B7", "GeoMean fluorescence (maximum value)": 591000}
    ]},
    {"molecular_target": "T1, MHGW8 (B2m-3(G4S)-HLA-G1-G4S-Avi)", "assay": "flow cytometry competition: blocks MHGW8-dextramer binding to ILT4 on HEK293T cells (competitor ILT4)", "units": {"EC50": "nM"}, "values": [
      {"binder": "B1", "EC50": 1420},
      {"binder": "B2", "EC50": 200},
      {"binder": "B3", "EC50": 1590},
      {"binder": "B4", "EC50": 1610},
      {"binder": "B6", "EC50": 1860},
      {"binder": "B5", "EC50": 1.6}
    ]},
    {"molecular_target": "T3, CD3W147 (homodimeric CD3εγ-Fc) (human, biotinylated)", "T3 construct": "also called recombinant CD3", "T3 chain": "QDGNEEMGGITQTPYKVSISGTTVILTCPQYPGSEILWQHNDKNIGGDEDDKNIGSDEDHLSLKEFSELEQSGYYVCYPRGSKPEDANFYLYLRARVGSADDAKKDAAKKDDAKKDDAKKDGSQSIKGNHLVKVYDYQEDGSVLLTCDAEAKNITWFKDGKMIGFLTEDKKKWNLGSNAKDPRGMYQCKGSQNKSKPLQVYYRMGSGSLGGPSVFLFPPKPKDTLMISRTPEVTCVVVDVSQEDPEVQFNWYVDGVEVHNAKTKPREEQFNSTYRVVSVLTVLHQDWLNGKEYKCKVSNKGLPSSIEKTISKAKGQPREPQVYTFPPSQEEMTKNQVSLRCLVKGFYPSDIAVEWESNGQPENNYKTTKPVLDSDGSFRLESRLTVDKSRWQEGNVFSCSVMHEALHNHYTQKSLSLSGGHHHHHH", "assay": "ELISA, E. coli supernatant (heated to 60° C., cooled) on biotinylated CD3W147", "values": [
      {"binder": "B8", "binding result": "binds"},
      {"binder": "B9", "binding result": "binds"},
      {"binder": "B10", "binding result": "binds"},
      {"binder": "B11", "binding result": "binds"}
    ]},
    {"molecular_target": "T1, MHGW8 (B2m-3(G4S)-HLA-G1-G4S-Avi)", "assay": "SPR, mAb captured by goat anti-human Fc, MHGW8 flowed", "units": {"Kd": "nM", "koff": "s⁻¹", "kon": "M⁻¹ s⁻¹"}, "values": [
      {"binder": "B1", "Kd": 0.4, "koff": 0.000263, "kon": 658000},
      {"binder": "B2", "Kd": 1.15, "koff": 0.0024, "kon": "2.08e+06"},
      {"binder": "B3", "Kd": 1.44, "koff": 0.000453, "kon": 315000},
      {"binder": "B4", "Kd": 0.55, "koff": 0.00179, "kon": "3.25e+06"},
      {"binder": "B6", "Kd": 0.809, "koff": 0.000153, "kon": 189000},
      {"binder": "B5", "Kd": 0.139}
    ]},
    {"molecular_target": "T4, Human CD3 epsilon (CD3ε) of the T cell receptor complex on cells (human, UniProt P07766 23-207)", "T4 construct": "On Jurkat cells and primary human (pan) T cells; also called T-cell surface glycoprotein CD3 epsilon chain; T3E", "T4 sequence (P07766 23-207 limits assumed, one chain of several)": "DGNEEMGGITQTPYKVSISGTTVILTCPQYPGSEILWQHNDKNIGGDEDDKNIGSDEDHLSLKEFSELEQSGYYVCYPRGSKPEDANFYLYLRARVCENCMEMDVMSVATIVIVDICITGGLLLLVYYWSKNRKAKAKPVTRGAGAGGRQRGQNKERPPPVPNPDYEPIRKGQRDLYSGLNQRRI", "assay": "flow cytometry, E. coli supernatant on human T cells", "values": [
      {"binder": "B8", "MFI (n = 2)": 111000},
      {"binder": "B9", "MFI (n = 2)": 166000},
      {"binder": "B10", "MFI (n = 2)": 154000},
      {"binder": "B11", "MFI (n = 2)": 111000}
    ]}
  ]
}
